One block for each molecule: values may come before it. Where no end group is shown, it is not given here.
Assays:
[1] = molecular target: VP16PAH2 (amino acids 251-404 of mSin3A encoding the PAH2 domain fused to the VP16 activation domain) (UniProt Q60520); test: directed yeast two-hybrid assay (LexA-SID with VP16PAH2, beta-galactosidase)
[2] = Circular dichroism (CD) spectroscopy of SID peptides in TFE; format: physicochemical; details: for α-helical content: 50 μM peptide, 25° C.; for ability to adopt α-helical structure in TFE: increasing TFE concentrations (1, 20, 50%)
Method: Circular Dichroism (CD) Spectroscopy—CD samples contained 50 μM of peptide, 1×phosphate-buffered saline, and the percentage of trifluoroethanol (TFE, Sigma) indicated in FIG. 4. CD spectra were collected on an Aviv 62DS spectrophotometer from 280 to 195 nm at 25° C. using a cell with a 0.1-cm pathlength. The reported spectra are the average of 15 consecutive runs. The observed ellipticity was converted to mean residue molar ellipticity [Θ] (deg cm^2 dmol^−1) using the relationship [Θ]=Θ/(Cr 1) where Θ is the observed ellipticity, 1 is the pathlength, and Cr is the mean residue molar concentration. Fractional helicities were calculated as described using values for [Θ]^0222 and [Θ]^100222, corresponding to 0% and 100% helical content at 222 nm, of −2000 and −28,400 deg cm^2 dmol^−1, respectively. Wu et al., Biochemistry 20:5766-570 (1981).
To test directly if the SID could adopt an α-helical structure, we measured the helical content of wild-type SID and mutant SID peptides using circular dichroism (CD) spectroscopy. […] Therefore, spectra for the wild-type and mutant SID peptides were measured in the solvent TFE, which is commonly used to stabilize α-helical conformation in peptides that have an inherent helical propensity. Sonnichsen et al., Biochemistry 31 :8790-8798 (1992), Jasanoff and Fersht, Biochemistry 33:2129-2135 (1994). […] At increasing TFE concentrations, the wild-type peptide adopts an α-helical structure as indicated by the strong negative peaks at 208 and 222 nm. In 20% TFE the SID is approximately 40% α-helical. This percentage increases to approximately 60% in 50% TFE.

PAH2 domain of mSin3A = molecular target: T1, PAH2 domain of mSin3A (Mus musculus, UniProt Q60520); test: Directed two-hybrid assay (LexA-SID fusions with VP16PAH2, quantitative β-galactosidase); format: cell-based; details: for affinity for PAH2 relative to wild-type SID 8-20: fold higher; for interaction with PAH2 (relative β-galactosidase activity): LexA fusion with VP16PAH2 in S. cerevisiae strain L40
T1 construct: expressed in transfected cells; host or cells: S. cerevisiae strain L40
T1 sequence (Q60520 251-404): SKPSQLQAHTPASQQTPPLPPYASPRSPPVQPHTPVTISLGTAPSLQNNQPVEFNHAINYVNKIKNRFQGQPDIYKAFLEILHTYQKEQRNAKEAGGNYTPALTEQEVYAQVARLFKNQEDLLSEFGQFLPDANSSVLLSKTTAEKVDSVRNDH
Description: Cloning and Interaction Assays—Fusions to the LexA DNA binding domain were made either by polymerase chain reaction amplifying SID 1-57 and SID 1-27 using pSPMad1 or pSPMad1 (L12P/A16P) (Ayer et al., Cell 80:767-776 (1995)) as template or by inserting a double-stranded oligonucleotide cassette encoding the various SID constructs between the EcoRI and BamH1 sites of pBTM116. Hollenberg et al., Mol. Cell. Biol. 15:3813-3822 (1995). Each construct was verified by sequencing. The different LexA fusion constructs and VP16PAH2 (Ayer et al., Cell 80:767-776 (1995)) were introduced into the S. cerevisiae strain L40 by lithium acetate transformation. Ausubel et al. eds., Current Protocols in Molecular Biology, John Wiley & Sons, Inc., New York (1995). Quantitative β-galactosidase assays were performed from three independent colonies in triplicate from liquid cultures. Ausubel et al. eds., Current Protocols in Molecular Biology, John Wiley & Sons, Inc., New York (1995). For each measurement the standard deviation was less than 10%.
We have used a directed two-hybrid assay to measure the relative affinity of the SID and various SID mutants for PAH2. Briefly, SID molecules based on the sequence of human Mad1 were fused to the DNA binding domain of bacterial LexA, and the PAH2 domain of mSin3A was fused to the transcriptional activation domain of VP16. Following introduction into the S. cerevisiae strain L40, relative affinity was measured by quantitative analysis of the β-galactosidase activity generated from an integrated LexA-dependent LacZ reporter gene.

affinity for PAH2 relative to wild-type SID 8-20 (PAH2 domain of mSin3A; yeast strain L40): approximately 2 fold
Molecule: E14A: minimal SID 8-20 with single mutation E14A, LexA fusion (NIQMLLAAADYLE; also: LexA fusion; UniProt Q05195 8-20, looked up, variant E14A)

interaction with PAH2 (relative β-galactosidase activity) (PAH2 domain of mSin3A): unable to interact with PAH2
interaction with PAH2 (relative β-galactosidase activity) (PAH2 domain of mSin3A; listed as L19D): fails to interact with PAH2
interaction with PAH2 (relative β-galactosidase activity) (PAH2 domain of mSin3A; listed as Leu-19): severely impaired binding
Molecule: GGGMNIQMLLEAADYDE [L19D SID, same mutation also tested as LexA-SID 8-20 fusion]
CD spectrum / helicity compared with wild-type SID ([2]; 50% TFE): nearly identical to that collected for the wild-type SID
reduction of helicity relative to wild-type ([2]; 50% TFE): ~5%
ability to adopt α-helical structure in TFE [2]: retain helical structure
ability to adopt α-helical structure in TFE ([2]; listed as L19D): retains helical structure

affinity for PAH2 relative to wild-type SID 8-20 (PAH2 domain of mSin3A; yeast strain L40): two-fold
Molecule: Q10A/E14A/D17A: minimal SID 8-20 containing all three alanine mutations, LexA fusion (NIAMLLAAAAYLE; also: LexA fusion; UniProt Q05195 8-20, looked up, variant Q10A E14A D17A)

interaction with PAH2 (relative β-galactosidase activity) (PAH2 domain of mSin3A): fails to interact with PAH2
interaction with PAH2 (relative β-galactosidase activity) (PAH2 domain of mSin3A; listed as L12P/A16P): failed to interact with PAH2
Molecule: GGGMNIQMPLEAPDYLE [L12P/A16P SID, same mutation also tested as LexA fusion in two-hybrid]
ability to adopt α-helical structure in TFE [2]: cannot adopt an α-helical structure
ability to adopt α-helical structure in TFE ([2]; listed as L12P/A16P): remained unchanged with increasing concentrations of TFE
ability to adopt α-helical structure in TFE ([2]; listed as double proline mutant SID peptide): incapable of α-helix formation

reduction of binding to PAH2 relative to wild-type SID 8-20 (PAH2 domain of mSin3A; yeast strain L40, fold reduced): 4 fold
Molecule: QLOR: minimal thirteen amino acid SID (8-20) with mutation at Gln-10, LexA fusion (NIRMLLEAADYLE; also: LexA fusion; UniProt Q05195 8-20, looked up, variant Q10R)

interaction with PAH2 (relative β-galactosidase activity) (PAH2 domain of mSin3A): sufficient for interaction
B1: SID 1-57: LexA DNA binding domain fused to amino acids 1-57 of Mad1 (protein)
chain: MKALTARQQEVFDLIRDHISQTGMPPTRAEIAQRLGFRSPNAAEEHLKALARKGVIEIVSGASRGIRLLQEEEEGLPLVGRVAAGEPLLAQQHIEGHYQVDPSLFKPNADFLLRVSGMSMKDIGIMDGDLLAVHKTQDVRNGQVVVARIDDEVTVKRLKKQGNKVELLPENSEFKPIVVDLRQQSFTIEGLAVGVIRNGDWLMAAAVRMNIQMLLEAADYLERREREAEHGYASMLPYNNKDRDALKRRNKSKKNNSSS

interaction with PAH2 (relative β-galactosidase activity) (PAH2 domain of mSin3A): necessary and sufficient for interaction
B2: NIQMLLEAADYLE (protein)
chain: MKALTARQQEVFDLIRDHISQTGMPPTRAEIAQRLGFRSPNAAEEHLKALARKGVIEIVSGASRGIRLLQEEEEGLPLVGRVAAGEPLLAQQHIEGHYQVDPSLFKPNADFLLRVSGMSMKDIGIMDGDLLAVHKTQDVRNGQVVVARIDDEVTVKRLKKQGNKVELLPENSEFKPIVVDLRQQSFTIEGLAVGVIRNGDWLNIQMLLEAADYLE

Second part, the molecule before the results:

Molecule: LexA fused to SID 8-20 D17A (from UniProt P0A7C2 1-202)
fold higher affinity than wild-type SID 8-20 (relative beta-galactosidase activity) [1]: 2 fold

Molecule: LexA fused to SID 8-20 Q10A (from UniProt P0A7C2 1-202)
fold higher affinity than wild-type SID 8-20 (relative beta-galactosidase activity) [1]: 2 fold

Molecule: LexA fused to SID 8-20 E14A (from UniProt P0A7C2 1-202)
fold higher affinity than wild-type SID 8-20 (relative beta-galactosidase activity) [1]: 2 fold

Molecule: GGGMNIQMLLEAADYLE [wild-type SID peptide]
α-helical content ([2]; 20% TFE): approximately 40%
α-helical content ([2]; 50% TFE): approximately 60%
secondary structure ([2]; aqueous solution containing 1% TFE): lacks secondary structure
ability to adopt α-helical structure in TFE [2]: able to adopt an α-helical conformation

Molecule: LexA fused to SID 8-20 Q10A/E14A/D17A (from UniProt P0A7C2 1-202)
fold better binding than wild-type SID [1]: 2 fold

Molecule: Tyr-18: minimal SID 8-20 with Tyr-18 mutated to aspartic acid, LexA fusion (NIQMLLEAADDLE; also: LexA fusion; UniProt Q05195 8-20, looked up, variant Y18D)
interaction with PAH2 (relative β-galactosidase activity) (PAH2 domain of mSin3A): severely impaired binding

Molecule: Q10A: minimal SID 8-20 with single mutation Q10A, LexA fusion (NIAMLLEAADYLE; also: LexA fusion; UniProt Q05195 8-20, looked up, variant Q10A)
affinity for PAH2 relative to wild-type SID 8-20 (PAH2 domain of mSin3A; yeast strain L40): approximately 2 fold

Molecule: LexA fused to SID 8-20 Q10R (from UniProt P0A7C2 1-202)
fold reduction of binding against wild-type SID 8-20 (relative beta-galactosidase activity) [1]: 4 fold

Molecule: GGGMNIQMLLEDADYLE [A15D SID, same mutation also tested as LexA-SID 8-20 fusion]
interaction with PAH2 (relative β-galactosidase activity) (PAH2 domain of mSin3A): unable to interact with PAH2
interaction with PAH2 (relative β-galactosidase activity) (PAH2 domain of mSin3A; listed as A15E): fails to interact with PAH2
interaction with PAH2 (relative β-galactosidase activity) (PAH2 domain of mSin3A; listed as Ala-15): severely impaired binding
CD spectrum / helicity compared with wild-type SID ([2]; 50% TFE): slightly less helical than the wild-type SID
reduction of helicity relative to wild-type ([2]; 50% TFE): approximately 40%
ability to adopt α-helical structure in TFE [2]: retain helical structure
ability to adopt α-helical structure in TFE ([2]; listed as A15E): retains helical structure

Molecule: D17A: minimal SID 8-20 with single mutation D17A, LexA fusion (NIQMLLEAAAYLE; also: LexA fusion; UniProt Q05195 8-20, looked up, variant D17A)
affinity for PAH2 relative to wild-type SID 8-20 (PAH2 domain of mSin3A; yeast strain L40): approximately 2 fold
